According to US20230174626A1:

Target: HCMV glycoprotein H (gH) on TB40 virus (Human Cytomegalovirus (HCMV), TB40 virus)
Test: cell-based or functional assay

Question: With mAb MSL-109 (antibody) as the substance, how does the IC50 (µg/ml), HCMV TB40 neutralization on ARPE-19 epithelial cells read?
Answer: The IC50 (µg/ml), HCMV TB40 neutralization on ARPE-19 epithelial cells was 0.89 µg/mL.

Question: What about the IC50 (µg/ml), HCMV TB40 neutralization on MRC-5 fibroblasts of the same substance?
Answer: Its IC50 (µg/ml), HCMV TB40 neutralization on MRC-5 fibroblasts is 0.46 µg/mL.
